This experiment has as its target T1, C1q derived from serum (human, UniProt P02745 23-245; P02746 28-253; P02747 29-245).
T1 construct: mature; Native C1q from serum, the comparator in SPR; The SPR paragraph says only 'serum C1q'; also called serC1q; serum C1q
Kind of experiment: SPR, C1q immobilized on CM5 chip, tetramer injected at 1-24 nM. In general terms: Surface plasmon resonance follows binding to a sensor surface in real time, without labels.

T1 sequence (P02745 23-245, chain 1 of 3): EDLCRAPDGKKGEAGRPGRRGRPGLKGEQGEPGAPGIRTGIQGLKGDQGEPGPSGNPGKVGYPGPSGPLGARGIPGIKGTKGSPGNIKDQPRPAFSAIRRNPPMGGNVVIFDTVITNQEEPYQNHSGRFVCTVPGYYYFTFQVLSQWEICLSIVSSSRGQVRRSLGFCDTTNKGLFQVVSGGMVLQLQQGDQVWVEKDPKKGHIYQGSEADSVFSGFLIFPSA
T1 sequence (P02746 28-253, chain 2 of 3): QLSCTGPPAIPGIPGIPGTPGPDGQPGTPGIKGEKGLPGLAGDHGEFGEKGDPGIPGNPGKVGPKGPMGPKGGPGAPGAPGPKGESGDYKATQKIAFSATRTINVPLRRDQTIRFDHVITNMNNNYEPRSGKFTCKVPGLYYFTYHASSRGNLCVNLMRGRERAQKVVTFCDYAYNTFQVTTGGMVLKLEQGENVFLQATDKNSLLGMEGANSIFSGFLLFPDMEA
T1 sequence (P02747 29-245, chain 3 of 3): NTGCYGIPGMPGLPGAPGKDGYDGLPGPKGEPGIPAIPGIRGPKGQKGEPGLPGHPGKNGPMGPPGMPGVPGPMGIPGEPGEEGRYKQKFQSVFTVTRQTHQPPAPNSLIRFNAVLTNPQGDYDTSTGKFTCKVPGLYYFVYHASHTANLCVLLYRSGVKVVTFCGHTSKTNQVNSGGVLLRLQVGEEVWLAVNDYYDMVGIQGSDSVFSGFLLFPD

B1: C1s-C1r-C1r-C1s tetramer (enzyme)
chain 1: SIPIPQKLFGEVTSPLFPKPYPNNFETTTVITVPTGYRVKLVFQQFDLEPSEGCFYDYVKISADKKSLGRFCGQLGSPLGNPPGKKEFMSQGNKMLLTFHTDFSNEENGTIMFYKGFLAYYQAVDLDECASRSKSGEEDPQPQCQHLCHNYVGGYFCSCRPGYELQEDTHSCQAECSSELYTEASGYISSLEYPRSYPPDLRCNYSIRVERGLTLHLKFLEPFDIDDHQQVHCPYDQLQIYANGKNIGEFCGKQRPPDLDTSSNAVDLLFFTDESGDSRGWKLRYTTEIIKCPQPKTLDEFTIIQNLQPQYQFRDYFIATCKQGYQLIEGNQVLHSFTAVCQDDGTWHRAMPRCKIKDCGQPRNLPNGDFRYTTTMGVNTYKARIQYYCHEPYYKMQTRAGSRESEQGVYTCTAQGIWKNEQKGEKIPRCLPVCGKPVNPVEQRQRIIGGQKAKMGNFPWQVFTNIHGRGGGALLGDRWILTAAHTLYPKEHEAQSNASLDVFLGHTNVEELMKLGNHPIRRVSVHPDYRQDESYNFEGDIALLELENSVTLGPNLLPICLPDNDTFYDLGLMGYVSGFGVMEEKIAHDLRFVRLPVANPQACENWLRGKNRMDVFSQNMFCAGHPSLKQDACQGDSGGVFAVRDPNTDRWVATGIVSWGIGCSRGYGFYTKVLNYVDWIKKEMEEED
chain 2: EPTMYGEILSPNYPQAYPSEVEKSWDIEVPEGYGIHLYFTHLDIELSENCAYDSVQIISGDTEEGRLCGQRSSNNPHSPIVEEFQVPYNKLQVIFKSDFSNEERFTGFAAYYVATDINECTDFVDVPCSHFCNNFIGGYFCSCPPEYFLHDDMKNCGVNCSGDVFTALIGEIASPNYPKPYPENSRCEYQIRLEKGFQVVVTLRREDFDVEAADSAGNCLDSLVFVAGDRQFGPYCGHGFPGPLNIETKSNALDIIFQTDLTGQKKGWKLRYHGDPMPCPKEDTPNSVWEPAKAKYVFRDVVQITCLDGFEVVEGRVGATSFYSTCQSNGKWSNSKLKCQPVDCGIPESIENGKVEDPESTLFGSVIRYTCEEPYYYMENGGGGEYHCAGNGSWVNEVLGPELPKCVPVCGVPREPFEEKQRIIGGSDADIKNFPWQVFFDNPWAGGALINEYWVLTAAHVVEGNREPTMYVGSTSVQTSRLAKSKMLTPEHVFIHPGWKLLEVPEGRTNFDNDIALVRLKDPVKMGPTVSPICLPGTSSDYNLMDGDLGLISGWGRTEKRDRAVRLKAARLPVAPLRKCKEVKVEKPTADAEAYVFTPNMICAGGEKGMDSCKGDSGGAFAVQDPNDKTKFYAAGLVSWGPQCGTYGLYTRVKNYVDWIMKTMQENSTPRED
notes: also called C1s-C1r-C1r-C1s proenzyme tetramer;2-C1s2
B1 gave a Kd of 3.12 nM, a koff of 0.00212 s⁻¹ and an association rate constant (kon) of 681000 M⁻¹ s⁻¹.

For orientation: Kd means the equilibrium constant for the complex coming apart. High values mean lower affinity, low ones higher affinity. A word on the koff: it is a measure of how fast the partners let go of each other. A low value points to a long-lived complex. The term kon denotes the rate constant with which the complex forms. Higher therefore signals fast association.
